The values below come from paper PMC7062162.

For the experiment, the target named is HA 2NΔ peptide-DR1 complex (human | influenza A virus) (UniProt P03437).

Consider “soluble recombinant HLA-DM (DMA*0101/DMB*0101) (complex)”, for which the kcat, fold change against the full HA peptide complex was found to be 5 fold.
